Assay results reported in paper PMC7661517.

Each substance was assayed against hen egg white lysozyme (chicken) (UniProt P00698) (assay: SPR; lysozyme immobilised on a CM5 chip by amine coupling (200 RU); Affitins injected at 15.6-500 nM; 25 °C; HBSEP pH 7.4 (10 mM Hepes, 150 mM NaCl, 2 mM EDTA, 0.05% P20); association 2 min, dissociation 7 min; apparent).
Chain of UniProt P00698 (P00698 19-147): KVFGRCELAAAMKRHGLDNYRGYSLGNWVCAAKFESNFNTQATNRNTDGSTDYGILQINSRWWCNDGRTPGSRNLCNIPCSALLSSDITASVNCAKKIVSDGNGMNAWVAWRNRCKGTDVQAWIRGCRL

In order of falling Kd:
1. Affitin H4 mutant M2 (L31I-F32W) (designed binder)  440 nM
2. Affitin H4 mutant M3 (L54I-L55V-L58I) (designed binder)  7.5 nM
3. Affitin H4 mutant M1 (F6W-F7I) (designed binder)  3.98 nM
